Square brackets hold non-standard residues; d marks the D form. Ends that are not written are not given here. Aib = CC(C)(N)C(=O)O A value given as a limit tells only on which side of the number the result lay.

Test [1] deals with human glucagon-like peptide-1 receptor (human, UniProt P43220). Put plainly: cell-based or functional assay.
Test [2] addresses T1, human glucose-dependent insulinotropic peptide receptor (human, UniProt P48546).
T1 sequence: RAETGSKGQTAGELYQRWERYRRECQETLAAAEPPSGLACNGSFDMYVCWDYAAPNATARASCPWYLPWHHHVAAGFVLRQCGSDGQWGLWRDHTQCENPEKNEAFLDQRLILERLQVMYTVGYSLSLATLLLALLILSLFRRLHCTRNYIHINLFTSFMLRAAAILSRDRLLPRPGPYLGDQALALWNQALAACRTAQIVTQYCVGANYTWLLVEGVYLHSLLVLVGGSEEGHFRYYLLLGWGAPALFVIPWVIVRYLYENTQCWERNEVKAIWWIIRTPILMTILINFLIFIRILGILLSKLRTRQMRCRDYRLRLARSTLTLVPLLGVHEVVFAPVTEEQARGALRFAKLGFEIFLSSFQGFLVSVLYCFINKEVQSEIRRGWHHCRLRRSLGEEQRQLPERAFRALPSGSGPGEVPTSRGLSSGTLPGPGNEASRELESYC
Put plainly: cell-based or functional assay.

B1: Compound No. 3 (peptide)
peptide: Y[Aib]EGTFTSDVSSYLEEEHQKEFIAWLVRGGPSSGAPPPSK-NH2
modifications: N-terminus assumed
SMILES: CC[C@H](C)[C@H](NC(=O)[C@H](Cc1ccccc1)NC(=O)[C@H](CCC(=O)O)NC(=O)[C@H](CCCCN)NC(=O)[C@H](CCC(N)=O)NC(=O)[C@H](Cc1c[nH]cn1)NC(=O)[C@H](CCC(=O)O)NC(=O)[C@H](CCC(=O)O)NC(=O)[C@H](CCC(=O)O)NC(=O)[C@H](CC(C)C)NC(=O)[C@H](Cc1ccc(O)cc1)NC(=O)[C@H](CO)NC(=O)[C@H](CO)NC(=O)[C@@H](NC(=O)[C@H](CC(=O)O)NC(=O)[C@H](CO)NC(=O)[C@@H](NC(=O)[C@H](Cc1ccccc1)NC(=O)[C@@H](NC(=O)CNC(=O)[C@H](CCC(=O)O)NC(=O)C(C)(C)NC(=O)[C@@H](N)Cc1ccc(O)cc1)[C@@H](C)O)[C@@H](C)O)C(C)C)C(=O)N[C@@H](C)C(=O)N[C@@H](Cc1c[nH]c2ccccc12)C(=O)N[C@@H](CC(C)C)C(=O)N[C@H](C(=O)N[C@@H](CCCNC(=N)N)C(=O)NCC(=O)NCC(=O)N1CCC[C@H]1C(=O)N[C@@H](CO)C(=O)N[C@@H](CO)C(=O)NCC(=O)N[C@@H](C)C(=O)N1CCC[C@H]1C(=O)N1CCC[C@H]1C(=O)N1CCC[C@H]1C(=O)N[C@@H](CO)C(=O)N[C@@H](CCCCN)C(N)=O)C(C)C
With B1, the “Activity for human GLP-1R (EC50 nM), cAMP HTRF” value (“Activity for human GLP-1R” for short) in test [1] worked out at 0.578 nM. Besides, the “Activity for human GIPR (EC50 nM), cAMP HTRF” value (from here on “Activity for human GIPR”) in test [2] was determined as 0.91 nM.

B2: Compound No. 67 (peptide)
peptide: Y[Aib]EGTFTSDYSIYLEKEAAKEFIAWLLAGGPSSGAPPPS-NH2
modifications: N-terminus assumed
SMILES: CC[C@H](C)[C@H](NC(=O)[C@H](Cc1ccccc1)NC(=O)[C@H](CCC(=O)O)NC(=O)[C@H](CCCCN)NC(=O)[C@H](C)NC(=O)[C@H](C)NC(=O)[C@H](CCC(=O)O)NC(=O)[C@H](CCCCN)NC(=O)[C@H](CCC(=O)O)NC(=O)[C@H](CC(C)C)NC(=O)[C@H](Cc1ccc(O)cc1)NC(=O)[C@@H](NC(=O)[C@H](CO)NC(=O)[C@H](Cc1ccc(O)cc1)NC(=O)[C@H](CC(=O)O)NC(=O)[C@H](CO)NC(=O)[C@@H](NC(=O)[C@H](Cc1ccccc1)NC(=O)[C@@H](NC(=O)CNC(=O)[C@H](CCC(=O)O)NC(=O)C(C)(C)NC(=O)[C@@H](N)Cc1ccc(O)cc1)[C@@H](C)O)[C@@H](C)O)[C@@H](C)CC)C(=O)N[C@@H](C)C(=O)N[C@@H](Cc1c[nH]c2ccccc12)C(=O)N[C@@H](CC(C)C)C(=O)N[C@@H](CC(C)C)C(=O)N[C@@H](C)C(=O)NCC(=O)NCC(=O)N1CCC[C@H]1C(=O)N[C@@H](CO)C(=O)N[C@@H](CO)C(=O)NCC(=O)N[C@@H](C)C(=O)N1CCC[C@H]1C(=O)N1CCC[C@H]1C(=O)N1CCC[C@H]1C(=O)N[C@@H](CO)C(N)=O
On to B2, for which the “Activity for human GIPR” value in test [2] turned out to be 0.017 nM.

B3: Compound No. 5 (peptide)
peptide: H[Aib]EGTFTSDVSSYLEEEAAKEFVNWLLAGGPSSGAPPPSK-NH2
modifications: N-terminus assumed
SMILES: CC(C)C[C@H](NC(=O)[C@H](CC(C)C)NC(=O)[C@H](Cc1c[nH]c2ccccc12)NC(=O)[C@H](CC(N)=O)NC(=O)[C@@H](NC(=O)[C@H](Cc1ccccc1)NC(=O)[C@H](CCC(=O)O)NC(=O)[C@H](CCCCN)NC(=O)[C@H](C)NC(=O)[C@H](C)NC(=O)[C@H](CCC(=O)O)NC(=O)[C@H](CCC(=O)O)NC(=O)[C@H](CCC(=O)O)NC(=O)[C@H](CC(C)C)NC(=O)[C@H](Cc1ccc(O)cc1)NC(=O)[C@H](CO)NC(=O)[C@H](CO)NC(=O)[C@@H](NC(=O)[C@H](CC(=O)O)NC(=O)[C@H](CO)NC(=O)[C@@H](NC(=O)[C@H](Cc1ccccc1)NC(=O)[C@@H](NC(=O)CNC(=O)[C@H](CCC(=O)O)NC(=O)C(C)(C)NC(=O)[C@@H](N)Cc1c[nH]cn1)[C@@H](C)O)[C@@H](C)O)C(C)C)C(C)C)C(=O)N[C@@H](C)C(=O)NCC(=O)NCC(=O)N1CCC[C@H]1C(=O)N[C@@H](CO)C(=O)N[C@@H](CO)C(=O)NCC(=O)N[C@@H](C)C(=O)N1CCC[C@H]1C(=O)N1CCC[C@H]1C(=O)N1CCC[C@H]1C(=O)N[C@@H](CO)C(=O)N[C@@H](CCCCN)C(N)=O
On to B3, for which, in test [1], the “Activity for human GLP-1R” value is 0.004 nM. Besides, the “Activity for human GIPR” value in test [2] was greater than 10 nM.

B4: Compound No. 6 (peptide)
peptide: Y[Aib]EGTFTSDVSSYLEEEAAKEFVNWLLAGGPSSGAPPPSK-NH2
modifications: N-terminus assumed
SMILES: CC(C)C[C@H](NC(=O)[C@H](CC(C)C)NC(=O)[C@H](Cc1c[nH]c2ccccc12)NC(=O)[C@H](CC(N)=O)NC(=O)[C@@H](NC(=O)[C@H](Cc1ccccc1)NC(=O)[C@H](CCC(=O)O)NC(=O)[C@H](CCCCN)NC(=O)[C@H](C)NC(=O)[C@H](C)NC(=O)[C@H](CCC(=O)O)NC(=O)[C@H](CCC(=O)O)NC(=O)[C@H](CCC(=O)O)NC(=O)[C@H](CC(C)C)NC(=O)[C@H](Cc1ccc(O)cc1)NC(=O)[C@H](CO)NC(=O)[C@H](CO)NC(=O)[C@@H](NC(=O)[C@H](CC(=O)O)NC(=O)[C@H](CO)NC(=O)[C@@H](NC(=O)[C@H](Cc1ccccc1)NC(=O)[C@@H](NC(=O)CNC(=O)[C@H](CCC(=O)O)NC(=O)C(C)(C)NC(=O)[C@@H](N)Cc1ccc(O)cc1)[C@@H](C)O)[C@@H](C)O)C(C)C)C(C)C)C(=O)N[C@@H](C)C(=O)NCC(=O)NCC(=O)N1CCC[C@H]1C(=O)N[C@@H](CO)C(=O)N[C@@H](CO)C(=O)NCC(=O)N[C@@H](C)C(=O)N1CCC[C@H]1C(=O)N1CCC[C@H]1C(=O)N1CCC[C@H]1C(=O)N[C@@H](CO)C(=O)N[C@@H](CCCCN)C(N)=O
Consider B4, for which the “Activity for human GLP-1R” value in test [1] amounted to 0.128 nM. Besides, the “Activity for human GIPR” value in test [2] turned out to be 2.1 nM.

B5: Compound No. 4 (peptide)
peptide: Y[Aib]EGTFTSDVSSYLEEIHQKEFIAWLVRGGPSSGAPPPSK-NH2
modifications: N-terminus assumed
SMILES: CC[C@H](C)[C@H](NC(=O)[C@H](Cc1ccccc1)NC(=O)[C@H](CCC(=O)O)NC(=O)[C@H](CCCCN)NC(=O)[C@H](CCC(N)=O)NC(=O)[C@H](Cc1c[nH]cn1)NC(=O)[C@@H](NC(=O)[C@H](CCC(=O)O)NC(=O)[C@H](CCC(=O)O)NC(=O)[C@H](CC(C)C)NC(=O)[C@H](Cc1ccc(O)cc1)NC(=O)[C@H](CO)NC(=O)[C@H](CO)NC(=O)[C@@H](NC(=O)[C@H](CC(=O)O)NC(=O)[C@H](CO)NC(=O)[C@@H](NC(=O)[C@H](Cc1ccccc1)NC(=O)[C@@H](NC(=O)CNC(=O)[C@H](CCC(=O)O)NC(=O)C(C)(C)NC(=O)[C@@H](N)Cc1ccc(O)cc1)[C@@H](C)O)[C@@H](C)O)C(C)C)[C@@H](C)CC)C(=O)N[C@@H](C)C(=O)N[C@@H](Cc1c[nH]c2ccccc12)C(=O)N[C@@H](CC(C)C)C(=O)N[C@H](C(=O)N[C@@H](CCCNC(=N)N)C(=O)NCC(=O)NCC(=O)N1CCC[C@H]1C(=O)N[C@@H](CO)C(=O)N[C@@H](CO)C(=O)NCC(=O)N[C@@H](C)C(=O)N1CCC[C@H]1C(=O)N1CCC[C@H]1C(=O)N1CCC[C@H]1C(=O)N[C@@H](CO)C(=O)N[C@@H](CCCCN)C(N)=O)C(C)C
Turning to B5, the “Activity for human GLP-1R” value in test [1] came out at 0.43 nM. Besides, the “Activity for human GIPR” value in test [2] was greater than 10 nM.

B6: Compound No. 68 (peptide)
peptide: Y[Aib]EGTFTSDVSIYLEKIAAQEFVNWLLAGGPSSGAPPPS-NH2
modifications: N-terminus assumed
SMILES: CC[C@H](C)[C@H](NC(=O)[C@H](CCCCN)NC(=O)[C@H](CCC(=O)O)NC(=O)[C@H](CC(C)C)NC(=O)[C@H](Cc1ccc(O)cc1)NC(=O)[C@@H](NC(=O)[C@H](CO)NC(=O)[C@@H](NC(=O)[C@H](CC(=O)O)NC(=O)[C@H](CO)NC(=O)[C@@H](NC(=O)[C@H](Cc1ccccc1)NC(=O)[C@@H](NC(=O)CNC(=O)[C@H](CCC(=O)O)NC(=O)C(C)(C)NC(=O)[C@@H](N)Cc1ccc(O)cc1)[C@@H](C)O)[C@@H](C)O)C(C)C)[C@@H](C)CC)C(=O)N[C@@H](C)C(=O)N[C@@H](C)C(=O)N[C@@H](CCC(N)=O)C(=O)N[C@@H](CCC(=O)O)C(=O)N[C@@H](Cc1ccccc1)C(=O)N[C@H](C(=O)N[C@@H](CC(N)=O)C(=O)N[C@@H](Cc1c[nH]c2ccccc12)C(=O)N[C@@H](CC(C)C)C(=O)N[C@@H](CC(C)C)C(=O)N[C@@H](C)C(=O)NCC(=O)NCC(=O)N1CCC[C@H]1C(=O)N[C@@H](CO)C(=O)N[C@@H](CO)C(=O)NCC(=O)N[C@@H](C)C(=O)N1CCC[C@H]1C(=O)N1CCC[C@H]1C(=O)N1CCC[C@H]1C(=O)N[C@@H](CO)C(N)=O)C(C)C
In the case of B6, the “Activity for human GIPR” value in test [2] stood at 0.047 nM.
